The values below come from patent publication US20140274782A1, “AFFINITY REAGENTS AND METHODS FOR DETECTION, PURIFICATION, AND PROTEOMIC ANALYSIS OF METHYLATED PROTEINS” (The Board of Trustees of the Leland Stanford Junior …, priority 2013, published 2014).

The subject of one test is 3×MBT domain of L3MBTL1. Briefly: Triple SILAC pull-down, 3xMBT/3xMBTD355N ratio (cytoplasmic, nuclear and chromatin fractions of 293T cells).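 As to all read-outs here: proteins quantified with MaxQuant, requiring at least two unique peptides and quantification in both label directions, normalized to the mean of proteins from a digested loading control.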 It counts as binding, human. The conditions noted are these: SILAC ratio, pull-down 3xMBT vs 3xMBTD355N; for 3xMBT/D355N UNC Heavy: experiment with UNC0638 in heavy SILAC media; for 3xMBT/D355N UNC Light: experiment with UNC0638 in light SILAC media.

A further test deals with T1, G9a and GLP (Homo sapiens, UniProt Q96KQ7+Q9H9B1).
T1 sequence (Q96KQ7 2-1210 limits assumed): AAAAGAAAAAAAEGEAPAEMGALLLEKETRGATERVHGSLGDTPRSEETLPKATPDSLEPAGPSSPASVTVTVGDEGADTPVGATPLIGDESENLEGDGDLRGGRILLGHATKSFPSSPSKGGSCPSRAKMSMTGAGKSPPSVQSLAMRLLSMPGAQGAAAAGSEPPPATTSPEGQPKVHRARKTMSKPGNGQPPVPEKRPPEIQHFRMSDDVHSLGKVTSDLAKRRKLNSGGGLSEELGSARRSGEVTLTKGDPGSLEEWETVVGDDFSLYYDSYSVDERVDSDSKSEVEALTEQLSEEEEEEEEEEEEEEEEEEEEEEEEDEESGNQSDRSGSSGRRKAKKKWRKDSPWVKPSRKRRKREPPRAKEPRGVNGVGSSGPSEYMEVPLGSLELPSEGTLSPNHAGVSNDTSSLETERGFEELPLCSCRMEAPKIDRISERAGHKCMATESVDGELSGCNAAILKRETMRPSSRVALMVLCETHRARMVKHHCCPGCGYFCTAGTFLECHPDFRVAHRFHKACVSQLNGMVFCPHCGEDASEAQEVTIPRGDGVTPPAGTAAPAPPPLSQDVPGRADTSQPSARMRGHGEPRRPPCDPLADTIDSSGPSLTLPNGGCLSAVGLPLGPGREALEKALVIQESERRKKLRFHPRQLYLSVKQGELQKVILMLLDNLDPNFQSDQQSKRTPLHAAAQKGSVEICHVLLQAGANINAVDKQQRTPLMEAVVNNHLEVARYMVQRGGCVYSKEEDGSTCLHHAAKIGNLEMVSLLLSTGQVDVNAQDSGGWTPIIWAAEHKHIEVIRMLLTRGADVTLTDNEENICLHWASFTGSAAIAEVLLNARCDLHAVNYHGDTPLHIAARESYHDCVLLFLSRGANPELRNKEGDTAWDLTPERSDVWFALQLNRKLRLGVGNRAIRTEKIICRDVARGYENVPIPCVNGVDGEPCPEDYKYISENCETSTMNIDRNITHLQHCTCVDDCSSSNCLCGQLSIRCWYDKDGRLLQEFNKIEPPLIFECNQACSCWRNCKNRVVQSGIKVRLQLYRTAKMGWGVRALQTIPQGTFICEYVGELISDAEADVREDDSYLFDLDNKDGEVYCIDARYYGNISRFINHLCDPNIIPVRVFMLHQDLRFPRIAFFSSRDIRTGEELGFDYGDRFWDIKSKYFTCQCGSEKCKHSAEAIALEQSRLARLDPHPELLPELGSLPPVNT
T1 sequence (Q9H9B1 2-1298 limits assumed): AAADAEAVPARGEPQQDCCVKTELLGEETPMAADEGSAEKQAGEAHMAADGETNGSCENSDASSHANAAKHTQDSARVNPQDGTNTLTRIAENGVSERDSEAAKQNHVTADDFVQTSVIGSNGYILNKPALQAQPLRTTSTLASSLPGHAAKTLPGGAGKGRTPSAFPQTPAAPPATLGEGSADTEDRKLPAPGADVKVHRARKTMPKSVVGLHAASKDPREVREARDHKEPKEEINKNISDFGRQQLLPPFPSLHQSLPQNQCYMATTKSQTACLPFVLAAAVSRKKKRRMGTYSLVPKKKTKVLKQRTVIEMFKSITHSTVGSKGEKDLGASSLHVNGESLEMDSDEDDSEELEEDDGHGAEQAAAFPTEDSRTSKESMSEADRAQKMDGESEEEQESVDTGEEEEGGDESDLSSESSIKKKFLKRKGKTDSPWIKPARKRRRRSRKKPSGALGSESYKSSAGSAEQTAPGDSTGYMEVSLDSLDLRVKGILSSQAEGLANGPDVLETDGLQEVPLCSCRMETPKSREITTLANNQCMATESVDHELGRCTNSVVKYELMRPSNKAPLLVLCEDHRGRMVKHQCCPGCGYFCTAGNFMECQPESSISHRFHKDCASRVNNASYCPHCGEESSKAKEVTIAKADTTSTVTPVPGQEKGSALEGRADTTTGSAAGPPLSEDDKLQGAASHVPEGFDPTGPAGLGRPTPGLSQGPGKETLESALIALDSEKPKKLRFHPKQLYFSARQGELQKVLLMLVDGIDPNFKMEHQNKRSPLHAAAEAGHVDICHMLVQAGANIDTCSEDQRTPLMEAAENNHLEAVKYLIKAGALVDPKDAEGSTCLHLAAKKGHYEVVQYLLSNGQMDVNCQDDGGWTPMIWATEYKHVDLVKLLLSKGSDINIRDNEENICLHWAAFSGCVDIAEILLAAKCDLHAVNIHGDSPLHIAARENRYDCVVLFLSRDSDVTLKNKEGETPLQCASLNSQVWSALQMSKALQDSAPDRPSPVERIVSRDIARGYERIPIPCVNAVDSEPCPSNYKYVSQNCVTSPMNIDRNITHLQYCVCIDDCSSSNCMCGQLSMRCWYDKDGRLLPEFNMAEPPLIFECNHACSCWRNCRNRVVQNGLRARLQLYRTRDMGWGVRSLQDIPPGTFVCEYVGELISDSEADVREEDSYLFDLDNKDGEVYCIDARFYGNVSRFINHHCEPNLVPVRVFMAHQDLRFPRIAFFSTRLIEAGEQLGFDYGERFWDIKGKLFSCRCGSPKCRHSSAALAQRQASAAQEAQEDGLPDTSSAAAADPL
Briefly: Triple SILAC pull-down after UNC0638 treatment of 293T cells, DMSO/UNC0638 ratio of protein captured by 3×MBT.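 As to all read-outs here: mass spectrometry (Q-Exactive) SILAC quantitation, DMSO/UNC0638 ratio computed after subtracting 3×MBTD355N mutant pull-down background, only proteins with at least twofold 3×MBT over mutant signal considered.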 The conditions noted are these: for Relative to UNC0638 UNC Heavy / Relative to UNC0638 UNC Light: SILAC ratio DMSO/UNC0638 of protein pulled down with 3xMBT; for Relative to UNC0638 UNC Heavy: UNC0638 in heavy SILAC media; for Relative to UNC0638 UNC Light: UNC0638 in light SILAC media; for Relative to UNC0638 Average: average of UNC Light and UNC Heavy experiments. Also on record: endogenous in cells; host or cells: HEK 293T. It counts as cell-based.

B1: CPSF2 (protein, UniProt Q9P2I0 1-782, looked up)
Cleavage and polyadenylation …: MTSIIKLTTLSGVQEESALCYLLQVDEFRFLLDCGWDEHFSMDIIDSLRKHVHQIDAVLLSHPDPLHLGALPYAVGKLGLNCAIYATIPVYKMGQMFMYDLYQSRHNTEDFTLFTLDDVDAAFDKIQQLKFSQIVNLKGKGHGLSITPLPAGHMIGGTIWKIVKDGEEEIVYAVDFNHKREIHLNGCSLEMLSRPSLLITDSFNATYVQPRRKQRDEQLLTNVLETLRGDGNVLIAVDTAGRVLELAQLLDQIWRTKDAGLGVYSLALLNNVSYNVVEFSKSQVEWMSDKLMRCFEDKRNNPFQFRHLSLCHGLSDLARVPSPKVVLASQPDLECGFSRDLFIQWCQDPKNSIILTYRTTPGTLARFLIDNPSEKITEIELRKRVKLEGKELEEYLEKEKLKKEAAKKLEQSKEADIDSSDESDIEEDIDQPSAHKTKHDLMMKGEGSRKGSFFKQAKKSYPMFPAPEERIKWDEYGEIIKPEDFLVPELQATEEEKSKLESGLTNGDEPMDQDLSDVPTKCISTTESIEIKARVTYIDYEGRSDGDSIKKIINQMKPRQLIIVHGPPEASQDLAECCRAFGGKDIKVYMPKLHETVDATSETHIYQVRLKDSLVSSLQFCKAKDAELAWIDGVLDMRVSKVDTGVILEEGELKDDGEDSEMQVEAPSDSSVIAQQKAMKSLFGDDEKETGEESEIIPTLEPLPPHEVPGHQSVFMNEPRLSDFKQVLLREGIQAEFVGGVLVCNNQVAVRRTETGRIGLEGCLCQDFYRIRDLLYEQYAIV
B1: in the test with 3×MBT domain of L3MBTL1, the “3xMBT/D355N UNC Heavy” value amounted to 1.85 log base 2 and the “3xMBT/D355N UNC Light” value is given as 4.20 log base 2. For the same molecule, in the test with G9a and GLP, the “Relative to UNC0638 UNC Heavy” value was found to be 0.15 log base 2, the “Relative to UNC0638 UNC Light” value came to 3.16 log base 2 and the “Relative to UNC0638 Average” value is reported as 1.65 log base 2. Also, the “Candidate G9a/GLP target” value in the test with G9a and GLP (reduced association with 3xMBT after UNC0638 treatment) is on record as “✓”.

B2: SRP72 (protein, UniProt O76094 2-671, looked up)
Signal recognition particle …: ASGGSGGVSVPALWSEVNRYGQNGDFTRALKTVNKILQINKDDVTALHCKVVCLIQNGSFKEALNVINTHTKVLANNSLSFEKAYCEYRLNRIENALKTIESANQQTDKLKELYGQVLYRLERYDECLAVYRDLVRNSQDDYDEERKTNLSAVVAAQSNWEKVVPENLGLQEGTHELCYNTACALIGQGQLNQAMKILQKAEDLCRRSLSEDTDGTEEDPQAELAIIHGQMAYILQLQGRTEEALQLYNQIIKLKPTDVGLLAVIANNIITINKDQNVFDSKKKVKLTNAEGVEFKLSKKQLQAIEFNKALLAMYTNQAEQCRKISASLQSQSPEHLLPVLIQAAQLCREKQHTKAIELLQEFSDQHPENAAEIKLTMAQLKISQGNISKACLILRSIEELKHKPGMVSALVTMYSHEEDIDSAIEVFTQAIQWYQNHQPKSPAHLSLIREAANFKLKYGRKKEAISDLQQLWKQNPKDIHTLAQLISAYSLVDPEKAKALSKHLPSSDSMSLKVDVEALENSAGATYIRKKGGKVTGDSQPKEQGQGDLKKKKKKKKGKLPKNYDPKVTPDPERWLPMRERSYYRGRKKGKKKDQIGKGTQGATAGASSELDASKTVSSPPTSPRPGSAATVSASTSNIIPPRHQKPAGAPATKKKQQQKKKKGGKGGW
B2: in the test on 3×MBT domain of L3MBTL1, the “3xMBT/D355N UNC Heavy” value worked out at 1.68 log base 2 and the “3xMBT/D355N UNC Light” value turned out to be 2.90 log base 2. For the same molecule, in the test with G9a and GLP, the “Relative to UNC0638 UNC Heavy” value is on record as 0.27 log base 2, the “Relative to UNC0638 UNC Light” value came out at 0.10 log base 2 and the “Relative to UNC0638 Average” value came to 0.19 log base 2.
